Test results reported in US20240254220A1, “COMBINED THERAPY USING ANTI-CD300C ANTIBODY” (CentricsBio, Inc., priority 2021, published 2024).

Assays:
CD300a antigen = target: T1, CD300a antigen (Homo sapiens, UniProt Q9UGN4); test: CD300a cross-reactivity binding ELISA; settings: CD300a antigen 0.039, 0.63, 10 μg/mL
T1 construct: purchased Sino Biological 12449-H08H
T1 sequence (Q9UGN4 18-180 limits assumed): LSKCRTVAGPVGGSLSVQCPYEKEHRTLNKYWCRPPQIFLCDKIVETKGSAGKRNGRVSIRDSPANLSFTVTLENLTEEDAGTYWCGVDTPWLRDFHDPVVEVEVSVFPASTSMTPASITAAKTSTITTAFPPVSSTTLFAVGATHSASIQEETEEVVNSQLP
Procedure: More specifically, the CD300a antigen (from Sino Biological) was used to treat at concentrations of 0.039 μg/mL, 0.63 μg/mL, and 10 μg/mL, and then binding ELISA was performed by the same method as in Experimental Example 2.1.

[1] = system: colon cancer cell line (CT26) tumor; test: Tumor-infiltrating lymphocytes and macrophages in CT26 cancer tissue after combined use; type: in vivo, BALB/c mice
Source text: In order to identify effects of the anti-CD300c monoclonal antibody on tumor-infiltrating lymphocytes (TIL) in a tumor microenvironment (TME), on day 25 of an experiment conducted by the same method as in Experimental Example 7.1, the mice were euthanized, and injected intravascularly with 1% paraformaldehyde (PFA) to perform perfusion, and then the cancer tissue was obtained. The obtained cancer tissue was fixed using 1% PFA, and sequentially dehydrated using 10%, 20%, and 30% sucrose solutions. The dehydrated cancer tissue was frozen in OCT compound (optimal cutting temperature compound), and then the cancer tissue was sectioned to a thickness of 50 μm using a cryotome. The tissue was incubated at 37° C. for 1 hour in a mixed solution of collagenase D (20 mg/mL) and DNase I (2 mg/mL). Thereafter, the resultant product was filtered through a 70 μm cell strainer, followed by the lysis of red blood cells, and then again filtered through a nylon mesh for making single cells. To suppress non-specific reactions in the single cell suspension, the cells were incubated with a CD16/32 antibody (Invitrogen) for 1 hour, and then cell viability was identified, and CD8+ T cells and CD31+ cancer blood vessel cells, which are tumor-infiltrating lymphocyte markers, were stained.
In order to identify whether the anti-CD300c monoclonal antibody increases M1 macrophages in the cancer tissue of mouse models, the cancer tissue sections prepared by the same method as in Experimental Example 7.2 were stained with antibodies to the M1 macrophage marker iNOS and the M2 macrophage marker CD206, and analyzed by FACS.
In order to identify whether the anti-CD300c monoclonal antibody CL7 promotes CD8+ T cell immunity in mouse tumor models, on day 25 of the experiment conducted by the same method as in Experimental Example 7.1, the mice were euthanized, and injected intravascularly with 1% paraformaldehyde (PFA) to perform perfusion, and then the cancer tissue was obtained. The obtained cancer tissue was fixed using 1% PFA, and sequentially dehydrated using 10%, 20%, and 30% sucrose solutions. […]

[2] = system: CD300a antigen and seven B7 family protein antigens (PD-L1, ICOS Ligand, CD276, B7-H4, CD80, CD86, CD273); test: Binding specificity ELISA against B7 family proteins; settings: antigens coated at 8 μg/mL
Procedure: In order to identify that the anti-CD300c monoclonal antibody CL7 specifically binds only to CD300c without binding to other B7 family proteins, binding ELISA was performed. More specifically, each of CD300c antigen, CD300a antigen, or seven B7 family protein antigens (PD-L1 [B7-H1] (Sino Biological), ICOS Ligand[B7-H2] (Sino Biological), CD276[B7-H3] (Sino Biological), B7-H4 (Sino Biological), CD80[B7-1] (Sino Biological), CD86[B7-2] (Sino Biological), CD273[PD-L2] (Sino Biological)) in a coating buffer (0.1 M sodium carbonate, pH 9.0) was coated on an ELISA plate at a concentration of 8 μg/mL per well, and then bound to the plate by incubation at 2° C. to 8° C. overnight. The unbound antigen was removed by washing with PBST three times, and then […] of blocking buffer (5% skim milk in PBST) was added to each well. Subsequently, blocking was performed at room temperature for 1 hour, followed by washing again with PBST. Thereafter, CL7 was diluted in quadruplicate with PBS, incubated with the antigen at room temperature for 1 hour for antigen binding 1 hour later, and washed three times with PBST. […] Then, 2 N sulfuric acid solution was added to terminate the development reaction, and the absorbance was measured at 450 nm to identify the antibody specifically binding to the CD300c antigen.

[3] = system: colon cancer cell line (CT26) tumor; test: In vivo cancer growth inhibition, CT26 model, CL7 dose range; design: species or system BALB/c mice; settings: 1, 5, 10 or 25 mg/kg i.p. on D11, D14, D18, D21; 25 days
Procedure: In order to identify anticancer effects of the anti-CD300c monoclonal antibody CL7 under in vivo conditions, a colon cancer cell line (CT26) at 2×10^5 cells was transplanted by subcutaneous injection into 8-week-old BALB/c mice to prepare syngeneic mouse tumor models. Animal breeding and experiments were all conducted in a SPF facility. On day 11 (D11) after the transplantation of the colon cancer cell line, the mice with a tumor size of 50 mm^3 to 100 mm^3 were administered the anti-CD300c monoclonal antibody 1 mg/kg, 5 mg/kg, 10 mg/kg, or 25 mg/kg, respectively, and for a control group, the mice were administered the same amount of phosphate buffered saline (PBS). Specifically, the mice were intraperitoneally injected with each dosage twice a week for two weeks (a total of 4 times on D11, D14, D18, and D21). The tumor volume was measured for 25 days.

[4] = system: colon cancer cell line (CT26) tumor; test: IFN-g ELISPOT of spleen in CT26 syngeneic mouse tumor model; type: in vivo, BALB/c mice; settings: 25 mg/kg i.p., day 25
Procedure: In order to identify effects of the anti-CD300c monoclonal antibody CL7 on CD8+ T cells under in vivo conditions, syngeneic mouse tumor models were prepared as in Experimental Example 3.2 and administered the anti-CD300c monoclonal antibody at the same concentration. On day 25 after injection, the mice were sacrificed, and spleen were collected from each of six mice in the CL7 25 mg/kg administration group showing a highest antitumor effect compared with the control group. Subsequently, the results were identified by measuring IFN-g through ELISPOT assay. Specifically, the Mouse IFN-g ELISpot kit was purchased from R&D Systems (#EL485), and IFN-g was measured according to the protocol for the kit.

[5] = CT26 cancer tissue, day 25, FACS

B1: CL7: anti-CD300c monoclonal antibody, VH3VL1 phage library, VH SEQ ID 327, VL SEQ ID 328 (antibody, V domains shown)
VH: EVQLLESGGGLVQPGGSLRLSCAASGFTFSRYAMSWVRQAPGKGLEWVSAISGSGGSTYYADSVKGRFTISRDNSKNTLYLQMNSLRAEDTAVYYCARSSQGIFDIWGQGTLVTVSS
VL: QSVLTQPPSASGTPGQRVTISCSGNNIGTRRVHWYQQLPDTAPKLLIYSKNNRPSGVPDRFSGSKSGTSASLAISGLRSEDEADYYCAAWDDSLSGPVFGGGTKLTVL
modifications: CL7 Heavy Chain Variable Region; CL7 Light Chain Variable Region
binding to antigens other than CD300c (CD300a) (CD300a antigen): did not bind to antigens other than CD300c | M1 macrophages (iNOS) in cancer tissue [1, 5]: remarkably increased | M2 macrophages (CD206) in cancer tissue [1, 5]: hardly observed | CD8+ T cells in cancer tissue ([1]; Experimental Example 7.4, CT26 cancer tissue sections, day 25): remarkably increased | binding specificity versus other similar proteins [2]: specifically recognized only CD300c without binding to other similar proteins | growth of CT26 colon cancer (tumor volume) [3]: delayed the growth of CT26 colon cancer in a dose-dependent manner | expression of IFN-g (ELISPOT) [4]: increased
